The source of these data is US20130095492A1.

For assay [1], the target named is full-length recombinant tau (human) (UniProt P10636). Kind of assay: sandwich immuno-PCR, Tau1 capture on plate, HT7-DNA conjugate detection, recombinant tau at 16 pg/ml in synthetic serum.
The target is the same in assay [2]. Kind of assay: sandwich immuno-PCR, Tau1 capture on plate, HT7-DNA conjugate detection, recombinant tau at 3.2 pg/ml in synthetic serum.
The target is the same in assay [3]. In words: sandwich immuno-PCR, Tau1 capture on plate, HT7-DNA conjugate detection, recombinant tau at 80 pg/ml in synthetic serum.
The target is the same in assay [4]. In words: sandwich immuno-PCR, Tau1 capture on plate, HT7-DNA conjugate detection, recombinant tau at 10000 pg/ml in synthetic serum.
Assay [5] has the same target. Kind of assay: sandwich immuno-PCR, Tau1 capture on plate, HT7-DNA conjugate detection, recombinant tau at 400 pg/ml in synthetic serum.
The target is the same in assay [6]. Kind of assay: sandwich immuno-PCR, Tau1 capture on plate, HT7-DNA conjugate detection, recombinant tau at 0.64 pg/ml in synthetic serum.
For assay [7] the target is unchanged. Kind of assay: sandwich immuno-PCR, Tau1 capture on plate, HT7-DNA conjugate detection, recombinant tau at 2000 pg/ml in synthetic serum.

UniProt P10636, sequence (P10636 other isoform, or with tags, fused parts or gaps): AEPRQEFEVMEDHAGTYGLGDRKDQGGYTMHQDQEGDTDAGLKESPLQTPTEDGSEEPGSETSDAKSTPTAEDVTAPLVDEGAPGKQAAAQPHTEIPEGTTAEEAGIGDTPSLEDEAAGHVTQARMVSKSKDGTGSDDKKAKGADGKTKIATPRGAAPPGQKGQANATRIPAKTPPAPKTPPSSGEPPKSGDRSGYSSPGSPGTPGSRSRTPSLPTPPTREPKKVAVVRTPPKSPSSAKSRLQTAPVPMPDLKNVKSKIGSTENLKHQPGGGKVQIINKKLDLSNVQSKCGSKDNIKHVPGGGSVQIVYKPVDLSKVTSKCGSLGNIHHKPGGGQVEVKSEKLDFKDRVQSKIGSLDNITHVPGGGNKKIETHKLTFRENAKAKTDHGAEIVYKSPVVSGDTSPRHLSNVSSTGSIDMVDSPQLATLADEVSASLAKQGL

As to Tau1 (antibody), the delta counts in assay [1] stood at 21.7 delta counts; in assay [2], 20.6 delta counts; in assay [3], 23.6 delta counts; in assay [4], 31.7 delta counts; in assay [5], 26.3 delta counts; in assay [6], 20.3 delta counts. Moreover, the delta counts in assay [7] was 29 delta counts.
